{"source": "paper PMC8786784", "molecular_target": "amyloid-β (Aβ) peptide (human (endogenous in brain tissue)) (UniProt P05067)", "assay": "2D-PAGE immunoblot; Aβ immunoprecipitated (4G8 and 6E10) from tris- and FA-soluble fractions of human frontal cortex, eluted in rehydration buffer (8.3 M urea, 0.5% CHAPS, 20 mM DTT), IEF pH 3-10, 4-12% Bis-Tris gel, blot with 6E10; oligomer size assigned from the band's mass", "note": "Where “and” joins values, the source holds several entries; their conditions need not be identical. Identical values can stand only once.", "data": [{"substance": "amyloid-β (Aβ) peptide (from UniProt P05067 672-713) (peptide; other documents disagree on this pair)", "values": [{"measurement": "stoichiometry N", "value": "5 and 6"}]}]}
